Data: US20250197485A1, “Anti-ED-A Antibodies for the Treatment of Pulmonary Hypertension” (Universitätsklinikum Jena, priority 2022, published 2025)

How the values were obtained:
MCT-induced PH [1] = test: Right heart catheterization (RVPsys) in mouse model of MCT-induced PH; assay type: in vivo, C57BL/6 mice
Excerpt: PH was induced in C57BL/6 mice (bodyweight: 25-30 g). The animals were obtained from ZET facility (Zentale Experimentelle Tierhaltung) of the University Hospital Jena (UKJ, Jena, Germany). Prior to PH induction, mice were allowed to acclimatize for at least 7 days with ad libitum access to food and water as well as controlled light/dark cycles. 41 animals were investigated divided into the following five experimental groups: • 1) sham induced controls (n=7) • 2) MCT induced PH (n=12) • 3) MCT induced PH+MAC (n=6) • 4) MCT induced PH+F8 IgG (n=8) • 5) MCT induced PH+KSF IgG (n=8)
For PH induction, the Monocrotaline (MCT, Carl Roth, Germany) method was used.
The sham induced controls were injected with 30 μl NaCl not containing MCT at day 1 (single dose; intraperitoneally, i.p.). […] The other 4 experimental groups were injected with MCT to induce PH (single dose; intraperitoneally, i.p.; 60 mg/kg body weight; volume 30 μl). Animals in the MCT induced PH+MAC group received the drug (Macitentan, Actelion Pharmaceuticals Ltd.) from day 14 to day 28 (once daily; per os; 15 mg/kg body weight). Animals in the MCT induced PH+F8 IgG group received F8 IgG 3 times on day 14, 16 and 18 (intravenously, i.v.; 195 μg/injection; volume 200 μl). Similarly, animals in the MCT induced PH+KSF IgG group received KSF IgG 3 times on day 14, 16 and 18 (intravenously, i.v.; 195 μg/injection; volume 120 μl).
On day 28 after MCT injection, mice of all experimental groups were deeply anesthetized with a single dose of 100 mg/kg body weight ketamine and 10 mg/kg body weight Xylazin in approximately 60 μl each administered i.p.
Right heart catheterization using a 1.4 F micro conductance pressure-volume catheter (Model SPR-839; Millar Instruments Inc; PowerLab system, ADInstruments Ltd., Oxford, UK) was performed via the right vena jugularis interna to measure the systolic right ventricular pressure and thereby verify the success of the experimental setting. Mice were then sacrificed in deep anesthesia and analgesia to carry out cardiac blood collection after thoracotomy and to harvest the organs.
Statistical analyses were performed using IBM SPSS statistical software, version 28.0 (IBM SPSS Statistics for Windows. Armonk, NY, USA). Data are expressed as mean±standard deviation. Kruskal-Wallis and Mann-Whitney-U test were used to test for significant differences between the different groups. A p-value<0.05 as statistically significant.

MCT-induced PH [2] = test: Mouse model of MCT-induced PH, overall hemodynamic, echocardiographic and histopathological evaluation; assay type: in vivo, C57BL/6 mice; settings: compared with MAC treatment
Excerpt: PH was induced in C57BL/6 mice (bodyweight: 25-30 g). The animals were obtained from ZET facility (Zentale Experimentelle Tierhaltung) of the University Hospital Jena (UKJ, Jena, Germany). Prior to PH induction, mice were allowed to acclimatize for at least 7 days with ad libitum access to food and water as well as controlled light/dark cycles. 41 animals were investigated divided into the following five experimental groups: • 1) sham induced controls (n=7) • 2) MCT induced PH (n=12) • 3) MCT induced PH+MAC (n=6) • 4) MCT induced PH+F8 IgG (n=8) • 5) MCT induced PH+KSF IgG (n=8) For PH induction, the Monocrotaline (MCT, Carl Roth, Germany) method was used. […] The clinical condition was assessed using an established score (clinical severity score=CSS) from 1 to 5 (1=no signs of clinical alterations, 2=low-grade impairment, 3=mid-grade impairment, 4=high-grade impairment, 5=exitus) obtained by evaluating spontaneous activity, reaction to exogenous stimuli and posture. […] Body temperature and respiratory rate were continuously monitored. All surrogate parameters of right ventricular (RV) morphology and function were assessed, among others, RV basal and medial diameters (in mm), RV length (in mm), tricuspid annular plane systolic excursion (TAPSE, in mm), right atrial area (RA area, in mm^2) or main pulmonary artery diameter (MPA, in mm). […] Data are expressed as mean±standard deviation. […]

B1: F8 IgG: Chimaeric anti-ED-A antibody: human F8 VH/VL fused to murine IgG2a constant regions; heavy chain SEQ ID NO: 11, light chain SEQ ID NO: 12 (antibody)
heavy: EVQLLESGGGLVQPGGSLRLSCAASGFTFSLFTMSWVRQAPGKGLEWVSAISGSGGSTYYADSVKGRFTISRDNSKNTLYLQMNSLRAEDTAVYYCAKSTHLYLFDYWGQGTLVTVSSAKTTAPSVYPLAPVCGDTTGSSVTLGCLVKGYFPEPVTLTWNSGSLSSGVHTFPAVLQSDLYTLSSSVTVTSSTWPSQSITCNVAHPASSTKVDKKIEPRGPTIKPCPPCKCPAPNLLGGPSVFIFPPKIKDVLMISLSPIVTCVVVDVSEDDPDVQISWFVNNVEVHTAQTQTHREDYNSTLRVVSALPIQHQDWMSGKEFKCKVNNKDLPAPIERTISKPKGSVRAPQVYVLPPPEEEMTKKQVTLTCMVTDFMPEDIYVEWTNNGKTELNYKNTEPVLDSDGSYFMYSKLRVEKKNWVERNSYSCSVVHEGLHNHHTTKSFSRTPGK
light: EIVLTQSPGTLSLSPGERATLSCRASQSVSMPFLAWYQQKPGQAPRLLIYGASSRATGIPDRFSGSGSGTDFTLTISRLEPEDFAVYYCQQMRGRPPTFGQGTKVEIKRTDAAPTVSIFPPSSEQLTSGGASVVCFLNNFYPKDINVKWKIDGSERQNGVLNSWTDQDSKDSTYSMSSTLTLTKDEYERHNSYTCEATHKTSTSPIVKSFNRNEC
B1 was tested, and the “attenuation in RVPsys compared to the MCT-induced PH group without treatment (positive control)” value (MCT-induced PH [1]; day 28, F8 IgG 195 μg i.v. day 14, 16, 18 (p=0.010), MAC 15 mg/kg per os once daily day 14-28 (n.s.)) was “significant attenuation”, the “RVPsys compared to the group treated with the negative control antibody KSF IgG” value (MCT-induced PH [1]; day 28, p=0.003) was “significantly reduced” and the “pressure values in the right ventricle (RVPsys)” value (MCT-induced PH [1]; in contrast to treatment with KSF IgG) was “significant reduction”. For the same molecule, the “beneficial effects with respect to the majority of the parameters (RVPsys, echocardiographic signs, lung tissue damage)” value (MCT-induced PH [2]) was “superior to MAC treatment”.
